Experimental data as given in publication PMC3326527 (Journal of molecular biology, 2005).

Target: the molecule itself
Experiment: crystal structure

B1: UDP-galactopyranose mutase from Mycobacterium tuberculosis (enzyme)
chain: MQPMTARFDLFVVGSGFFGLTIAERVATQLDKRVLVLERRPHIGGNAYSEAEPQTGIEVHKYGAHLFHTSNKRVWDYVRQFTDFTDYRHRVFAMHNGQAYQFPMGLGLVSQFFGKYFTPEQARQLIAEQAAEIDTADAQNLEEKAISLIGRPLYEAFVKGYTAKQWQTDPKELPAANITRLPVRYTFDNRYFSDTYEGLPTDGYTAWLQNMAADHRIEVRLNTDWFDVRGQLRPGSPAAPVVYTGPLDRYFDYAEGRLGWRTLDFEVEVLPIGDFQGTAVMNYNDLDVPYTRIHEFRHFHPERDYPTDKTVIMREYSRFAEDDDEPYYPINTEADRALLATYRARAKSETASSKVLFGGRLGTYQYLDMHMAIASALNMYDNVLAPHLRDGVPLLQDGA
- binding result: binds
